These results are taken from patent publication US20090011510A1.

This experiment deals with intracellular product of the soybean Rps1b gene (soybean). Put plainly: cell-based or functional assay.

Consider “mature Avr1b (lacking the secretory leader), Phytophthora sojae”, for which the Killing in presence of Rps1b (ratio of GUS spots) is 0.22.
